This assay deals with T1, hK1 (human tissue kallikrein 1), recombinant (human, UniProt P06870 25-262).
T1 construct: Expressed in P. pastoris from KLK1 cDNA and purified; enzymatically active; also called KLK1; Recombinant (Pichia) Kallikrein
The assay can be described thus: SPR. (SPR reads the build-up and loss of mass on a sensor chip optically.)

The text below walks through data of patent US7329737 (DYAX, dated 2008).

The term Kd denotes the free concentration of one partner at which half of the binding sites on the other are occupied at equilibrium, for simple one-to-one binding. As a reminder, the koff is the rate constant with which the complex falls apart. For orientation: kon means the second-order rate constant of association.

B1: M0099-E11 (Fab, V domains shown)
VH: EVQLLESGGGLVQPGGSLRLSCAASGFTFSHYTMVWVRQAPGKGLEWVSSIYSSGGRTNYADSVKGRFTISRDNSKNTLYLQMNSLRAEDTAVYYCARIVVVPSAQFYFYYGMDVWGQGTTVTVSS
VL: DIQMTQSPSTLSASVGDRVTITCRASQSISNWLAWYQQKPGRAPKLLIYKASTLESGVPSRFSGSGSGTEFTLTISSLQPDDFATYYCQHYNSYSLFGQGTKLEIKR
Turning to B1, the equilibrium dissociation constant (Kd) is 13.2 nM, the koff stood at 0.00796 s⁻¹ and the kon is 605000 M⁻¹ s⁻¹.

B2: M0103-F07 (Fab, V domains shown)
VH: EVQLLESGGGLVQPGGSLRLSCAASGFTFSLYAMHWVRQAPGKGLEWVSSIRPSGGLTKYADSVKGRFTISRDNSKNTLYLQMNSLRAEDTAVYYCARVGVWYGMDVWGQGTTVTVSS
VL: AQSALTQPASVSGSPGQSITISCTGTSNDIGRTNYVSWYRQDPGRAPKLILFEVSNRPSGISNRFSASKSGSTASLTISGLQADDESDYYCSSCTTAPVCVFGNGTRVTVLG
As to B2, the Kd amounted to 13.2 nM, the koff was 0.00743 s⁻¹ and the kon worked out at 564000 M⁻¹ s⁻¹.

B3: M0112-C12 (Fab, V domains shown)
VH: EVQLLESGGGLVQPGGSLRLSCAASGFTFSRYMMYWVRQAPGKGLEWVSSIYPSGGKTLYADSVKGRFTISRDNSKNTLYLQMNSLRAEDTAVYYCARVGVWYGMDVWGQGTTVTVSS
VL: DIQMTQSPGTLSLSPGERATLSCRASQSVSSSYLAWYQQKPGQAPRLLIYGASSRATGIPDRFSGSGSGTEFTLTISSLQSEDSAVYYCQQYNNWPPLTFGGGTKVEIKR
Regarding B3, the Kd amounted to 16 nM, the koff is 0.00465 s⁻¹ and the kon came out at 290000 M⁻¹ s⁻¹.

B4: M0117-A12 (Fab, V domains shown)
VH: EVQLLESGGGLVQPGGSLRLSCAASGFTFSNYKMSWVRQAPGKGLEWVSGIYPSGGLTQYADSVKGRFTISRDNSKNTLYLQMNSLRAEDTAVYYCAKVGVWYGMDVWGQGTTVTVSS
VL: DIQMTQSPGTLSLSPGDRATLSCRASQSVGSDYLAWYQQKPGQAPRLLIYGASSRATGIPDRFSGSGSGTDFTLTISRLEPEDFAVYYCQQYGSSLYTFGQGTKLEIKR
Take B4: the Kd was found to be 14.2 nM, the koff is 0.00345 s⁻¹ and the kon amounted to 243000 M⁻¹ s⁻¹.

B5: M0097-E07 (Fab, V domains shown)
VH: EVQLLESGGGLVQPGGSLRLSCAASGFTFSWYQMMWVRKAPGKGLEWVSYIRSSGGKTDYADSVKGRFTISRDNSKNTLYLQMNSLRAEDTAVYYCARVGVWYGMDVWGQGTTVTVSS
VL: DIQMTQSPSSLSASVGDRVTITCRASQSISSYLSWFQQRPGKAPKLLIYSASNLQSGVPLRFSGSGSGTDFTLTISSLQPEDFATYYCQQIYRTPLTFGGGTKVEIKR
Consider B5, for which the Kd is 13.9 nM, the koff was 0.00815 s⁻¹ and the kon came out at 585000 M⁻¹ s⁻¹.

B6: M0102-A04 (Fab, V domains shown)
VH: EVQLLESGGGLVQPGGSLRLSCAASGFTFSHYVMNWVRQAPGKGLEWVSRIYPSGGVTVYADSVKGRFTISRDNSKNTLYLQMNSLRAEDTAVYYCARGYGMDVWGQGTMVTVSS
VL: AQSELTQPPSASGTPGQRVTISCSGSSSNIGSNYVYWYQQYPGTVPKLLIHSNNQRPSGVPDRFSGPKSGTSASLAISGLRSEDEADYYCATWDNSLSAWVFGGGTKLTVLR
On to B6, for which the Kd is 13.3 nM, the koff came out at 0.00435 s⁻¹ and the kon worked out at 327000 M⁻¹ s⁻¹.

B7: M0127-H05 (Fab, V domains shown)
VH: EVQLLESGGGLVQPGGSLRLSCAASGFTFSHYLMGWVRQAPGKGLEWVSSIWPSGGHTSYADSVKGRFTISRDNSKNTLYLQMNSLRAEDTAVYYCARHYGMDVWGQGTTVTVSS
VL: DIQMTQSPSSLSASVGDRVTITCRASQSISSYLNWYQQKPGKVPKLLIYAASSLQSGVPSRFSGSGSGTDFTLTISSLQPDDFATYYCQQTFSTWTFGQGTKVEIRR
Take B7: the Kd stood at 15.3 nM, the koff amounted to 0.00439 s⁻¹ and the kon stood at 287000 M⁻¹ s⁻¹.

B8: M0138-B06 (Fab, V domains shown)
VH: EVQLLESGGGLVQPGGSLRLSCAASGFTFSPYTMSWVRQAPGKGLEWVSGIYPSGGETWYADSVKGRFTISRDNSKNTLYLQMNSLRAEDTAVYYCAKNINLRYDILTGYFDFWGQGTMVTVSS
VL: DIQMTQSPSSVSASVGDRVTITCRASQGISSWLAWYQQKPGKAPKLLIYAASSLQSGVPSRFSGSGSGTDFTLTISSLQPEDFATYYCQQANSFPLTFGGGTKVEIKR
Consider B8, for which the Kd stood at 12.5 nM, the koff was 0.000829 s⁻¹ and the kon was determined as 66400 M⁻¹ s⁻¹.

B9: M0129-B09 (Fab, V domains shown)
VH: EVQLLESGGGLVQPGGSLRLSCAASGFTFSRYWMHWVRQAPGKGLEWVSSIGPSGGVTKYADSVKGRFTISRDNSKNTLYLQMNSLRAEDTAVYYCARHGSWGGMDVWGQGTTVTVSS
VL: DIQMTQSPSFLSASVGDRVTITCRASQGISSYLAWYQQKPGKAPKLLIYAASTLQSGVPSRFSGSGSGTEFTLTISSLQPEDFATYYCQQLNSYPRTFGQGTKVEIKR
Turning to B9, the dissociation constant Kd worked out at 12.7 nM, the koff was 0.022 s⁻¹ and the kon was determined as 1.73e+06 M⁻¹ s⁻¹.

B10: M0107-D05 (Fab, V domains shown)
VH: EVQLLESGGGLVQPGGSLRLSCAASGFTFSNYHMQWVRQAPGKGLEWVSSIYPSGGFTRYADSVKGRFTISRDNSKNTLYLQMNSLRAEDTAVYYCARDGGQGGWGQGTLVTVSS
VL: DIQMTQSPSTLSASVGDRVTITCRASQSISSWLAWYQQKPGKVPKLLIHAASTLQSGVPSRFSGSGSGTDFTLTISSLQPEDVATYYCQKYNSAPLTFGGGTKVEIKR
Take B10: the Kd came out at 15.3 nM, the koff was found to be 0.003 s⁻¹ and the kon stood at 195000 M⁻¹ s⁻¹.

B11: M0095-H10 (Fab, V domains shown)
VH: EVQLLESGGGLVQPGGSLRLSCAASGFTFSNYKMQWVRQAPGKGLEWVSSIYSSGGKTVYADSVKGRFTISRDNSKNTLYLQMNSLRAEDTAVYYCARTPGYNYFDYWGQGTLVTVSS
VL: DIQMTQSPSTLSASVGDRVTITCRASQSISSWLAWYQQKPGKAPKLLIYTASSLESGVPSRFSAGGSGTEFTLTISSLQPDDFGTYYCQQYNSYSLTFGGGTKVEIKR
Regarding B11, the equilibrium dissociation constant (Kd) turned out to be 16.5 nM, the koff stood at 0.00918 s⁻¹ and the kon turned out to be 556000 M⁻¹ s⁻¹.

B12: M0127-D05 (Fab, V domains shown)
VH: EVQLLESGGGLVQPGGSLRLSCAASGFTFSHYYMMWVRQAPGKGLEWVSSIGPSGGMTDYADSVKGRFTISRDNSKNTLYLQMNSLRAEDTAVYYCATGGTASLDYWGQGTLVTVSS
VL: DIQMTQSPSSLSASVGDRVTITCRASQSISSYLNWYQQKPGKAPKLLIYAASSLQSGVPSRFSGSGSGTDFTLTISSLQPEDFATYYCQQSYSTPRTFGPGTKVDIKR
As to B12, the Kd turned out to be 14.4 nM, the koff came out at 0.000921 s⁻¹ and the kon is 63900 M⁻¹ s⁻¹.

B13: M0126-B12 (Fab, V domains shown)
VH: EVQLLESGGGLVQPGGSLRLSCAASGFTFSHYVMGWVRQAPGKGLEWVSSIYPSGGKTTYADSVKGRFTISRDNSKNTLYLQMNSLRAEDTAVYYCASPSTGSWSAFDIWGQGTMVTVSS
VL: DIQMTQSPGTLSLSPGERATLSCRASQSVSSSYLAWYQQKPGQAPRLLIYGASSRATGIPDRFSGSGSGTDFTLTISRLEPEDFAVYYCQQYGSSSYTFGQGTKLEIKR
On to B13, for which the Kd is 15 nM, the koff was determined as 0.00579 s⁻¹ and the kon was found to be 385000 M⁻¹ s⁻¹.

B14: M0122-G06 (Fab, V domains shown)
VH: EVQLLESGGGLVQPGGSLRLSCAASGFTFSWYAMHWVRQAPGKGLEWVSVISPSGGATRYADSVKGRFTISRDNSKNTLYLQMNSLRAEDTAVYYCVRASTVTTLFQHWGQGTLVTVSS
VL: AQSALTQPASVSGSPGQSITISCTGTSSDVGGYNYVSWYQQHPGKAPKLMIYDVSKRPSGVSNRFSGSKSGNTASLTISGLQAEDEADYYCSSYTSSITLVVFGGGTKLTVLS
Turning to B14, the dissociation constant (Kd) worked out at 15.2 nM, the off-rate (koff) worked out at 0.107 s⁻¹ and the kon came out at 7.08e+06 M⁻¹ s⁻¹.

B15: M0111-B02 (Fab, V domains shown)
VH: EVQLLESGGGLVQPGGSLRLSCAASGFTFSKYWMAWVRQAPGKGLEWVSVIYPSGGQTKYADSVKGRFTISRDNSKNTLYLQMNSLRAEDTAVYYCTLMRYGDRFDYWGQGTLVTVSS
VL: AQYELTQDPAVSVALGQTVRITCQGDSLRSYYASWYQQKPGQAPVLVIYSKSNRPSGIPDRFSGSSSGSTASLTITGAQAEDEADYYCNSRDSSGNHLVFGGGTKLTVL
Take B15: the Kd was 12.7 nM and the koff was found to be 1170 s⁻¹.

B16: M0099-C12 (Fab, V domains shown)
VH: EVQLLESGGGLVQPGGSLRLSCAASGFTFSRYAMHWVRQAPGKGLEWVSSIWPSGGATFYADSVKGRFTISRDNSKNTLYLQMNSLRAEDTAVYYCATSPTLNAFHIWGQGTMVTVSS
VL: AQSVLTQPASVSGSPGQSITISCTGTTSDVGGYKYVSWYQHHPGKVPKLIIYEVNHRPSGVSHRFSGSKSGNTASLIISALQAEDEADYYCYSYTSDSTPYVFGTGTKVTVL
Take B16: the Kd was 13 nM, the koff stood at 0.00461 s⁻¹ and the kon is 354000 M⁻¹ s⁻¹.

B17: M0126-C10 (Fab, V domains shown)
VH: EVQLLESGGGLVQPGGSLRLSCAASGFTFSHYKMHWVRQAPGKGLEWVSSIWPSGGGTFYADSVKGRFTISRDNSKNTLYLQMNSLRAEDTAMYYCARTSGGFGAFDIWGQGTMVTVSS
VL: DIQMTQSPSSLSASVGDRVTITCRAGQTINNYLNWYQQKPGKAPNLLIYAASNLQSGVPSRFSGSKSGTDFTLTISSLQPEDFATYHCQQTYRTPFTFGGGTRVEIKG
For B17, the Kd was determined as 14.4 nM, the koff came to 0.00648 s⁻¹ and the kon amounted to 451000 M⁻¹ s⁻¹.

B18: M0119-B09 (Fab, V domains shown)
VH: EVQLLESGGGLVQPGGSLRLSCAASGFTFSWYWMYWVRQAPGKGLEWVSVIGSSGGVTKYADSVKGRFTISRDNSKNTLYLQMNSLRAEDTATYYCARGPYRGYFDYWGQGTLVTVSS
VL: DIQMTQSPATLSVSPGEGATLSCRASQSVGNSLAWYQQKPGQAPRVLVYGASTRASGIPARFSGSGSVTEFTLTISSLQSEDFAVYYCQEYNKWPITFGQGTRLERKR
On to B18, for which the Kd came to 13.7 nM, the koff turned out to be 0.00483 s⁻¹ and the kon stood at 352000 M⁻¹ s⁻¹.

B19: M0098-C10 (Fab, V domains shown)
VH: EVQLLESGGGLVQPGGSLRLSCAASGFTFSFYSMMWVRQAPGKGLEWVSGISSSGGTTKYADSVKGRFTISRDNSKNTLYLQMNSLRAEDTAVYYCARGGTNYDYVWGSYRSHYYYYGMDVWGQGTTVTVSS
VL: DIQMTQSPSSLSASVGDRVTITCRASHNIYTSLNWLQQKPGKAPKLLIYGASTLENGVPSRFSGSASGTDFTLTISSLQPEDSATYYCQQSYTSVTFGQGTKLEIRR
B19: the Kd came to 16.1 nM, the off-rate constant (koff) worked out at 0.00193 s⁻¹ and the kon stood at 120000 M⁻¹ s⁻¹.
